# T1: GRIP1_2, Q9Y3R0
# T1 sequence (Q9Y3R0 145-248, limits assumed, looked up): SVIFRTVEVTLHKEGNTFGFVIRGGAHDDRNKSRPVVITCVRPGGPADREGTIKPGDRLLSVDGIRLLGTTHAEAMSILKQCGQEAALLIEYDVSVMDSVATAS
# T2: RAPGEF6, Q8TEU7
# T2 sequence (Q8TEU7 525-625, limits assumed, looked up): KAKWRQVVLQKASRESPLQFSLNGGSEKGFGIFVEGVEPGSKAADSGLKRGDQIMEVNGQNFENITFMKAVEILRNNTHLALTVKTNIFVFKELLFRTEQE
# T3: MPDZ_5, O75970
# T3 sequence (O75970 695-796, limits assumed, looked up): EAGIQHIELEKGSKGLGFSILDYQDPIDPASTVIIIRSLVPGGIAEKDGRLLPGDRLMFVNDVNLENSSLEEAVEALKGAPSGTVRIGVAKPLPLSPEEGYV
# T4: MPDZ_12, O75970
# T4 sequence (O75970 1857-1958, limits assumed, looked up): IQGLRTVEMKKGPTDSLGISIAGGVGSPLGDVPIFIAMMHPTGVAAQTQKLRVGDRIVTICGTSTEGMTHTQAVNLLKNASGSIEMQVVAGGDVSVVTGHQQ
# T5: PTPN13_1, Q12923
# T5 sequence (Q12923 1088-1188, limits assumed, looked up): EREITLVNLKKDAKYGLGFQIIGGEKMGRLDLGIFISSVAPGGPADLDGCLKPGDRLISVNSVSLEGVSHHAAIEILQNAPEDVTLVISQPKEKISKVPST
# T6: TIAM2, Q8IVF5
# T6 sequence (Q8IVF5 885-986, limits assumed, looked up): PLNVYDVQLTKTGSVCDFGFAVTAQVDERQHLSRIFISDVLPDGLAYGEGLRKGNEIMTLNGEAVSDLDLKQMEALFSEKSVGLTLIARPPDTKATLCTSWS
# T7: RHPN1, Q8TCX5
# T7 sequence (Q8TCX5 508-602, limits assumed, looked up): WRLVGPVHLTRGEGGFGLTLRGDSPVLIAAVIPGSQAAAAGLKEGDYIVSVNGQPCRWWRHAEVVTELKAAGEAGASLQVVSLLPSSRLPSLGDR
# T8: APBA1_1, Q02410
# T8 sequence (Q02410 651-752, limits assumed, looked up): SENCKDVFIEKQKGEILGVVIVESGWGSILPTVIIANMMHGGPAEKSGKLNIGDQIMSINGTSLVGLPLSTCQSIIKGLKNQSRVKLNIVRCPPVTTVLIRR
# T9: PDZD2_2, O15018
# T9 sequence (O15018 329-429, limits assumed, looked up): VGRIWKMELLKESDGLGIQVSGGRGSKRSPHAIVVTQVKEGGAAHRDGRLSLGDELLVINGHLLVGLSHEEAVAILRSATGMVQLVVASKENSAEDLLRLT
# T10: LNX2_3, Q8N448
# T10 sequence (Q8N448 463-564, limits assumed, looked up): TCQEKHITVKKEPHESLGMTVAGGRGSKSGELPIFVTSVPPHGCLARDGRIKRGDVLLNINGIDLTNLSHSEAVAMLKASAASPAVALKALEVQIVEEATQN
# Biological target: T1, GRIP1_2, Q9Y3R0
# Assay: holdup assay
# Parameters: key: below the threshold = too weak to quantify, mostly under pKd 3.1 to 4
# Details: plain residues with an end cap or a label only (N-terminal biotin on a linker: ado-ado)
row,pKd,Binder
1,below the threshold,"SKQFDKNAYV [CLDN10, P78369]"

# Biological target: MAGI2_2, Q86UL8
# Sequence (Q86UL8 410-522): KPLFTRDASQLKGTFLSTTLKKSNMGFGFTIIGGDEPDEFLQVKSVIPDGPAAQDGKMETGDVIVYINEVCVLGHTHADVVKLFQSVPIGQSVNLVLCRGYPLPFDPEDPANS
# Assay: holdup assay
# Parameters: key: below the threshold = too weak to quantify, mostly under pKd 3.1 to 4
# Details: plain residues with an end cap or a label only (N-terminal biotin on a linker: ado-ado)
row,pKd,Binder
1,below the threshold,"SKQFDKNAYV [CLDN10, P78369]"

# Biological target: Inadl_1, Q8NI35
# Sequence (Q8NI35 113-229): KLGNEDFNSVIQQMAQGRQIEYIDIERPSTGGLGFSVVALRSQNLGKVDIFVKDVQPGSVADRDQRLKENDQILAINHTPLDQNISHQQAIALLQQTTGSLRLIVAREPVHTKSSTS
# Assay: holdup assay
# Parameters: key: below the threshold = too weak to quantify, mostly under pKd 3.1 to 4
# Details: plain residues with an end cap or a label only (N-terminal biotin on a linker: ado-ado)
row,pKd,Binder
1,below the threshold,"SKQFDKNAYV [CLDN10, P78369]"

# Biological target: T2, RAPGEF6, Q8TEU7
# Assay: holdup assay
# Parameters: key: below the threshold = too weak to quantify, mostly under pKd 3.1 to 4
# Details: plain residues with an end cap or a label only (N-terminal biotin on a linker: ado-ado)
row,pKd,Binder
1,below the threshold,"SKQFDKNAYV [CLDN10, P78369]"

# Biological target: GRIP2_7, Q9C0E4
# Sequence (Q9C0E4 934-1023): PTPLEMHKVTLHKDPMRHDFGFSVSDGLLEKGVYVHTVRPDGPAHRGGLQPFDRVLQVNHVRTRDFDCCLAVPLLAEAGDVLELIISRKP
# Assay: holdup assay
# Parameters: key: below the threshold = too weak to quantify, mostly under pKd 3.1 to 4
# Details: plain residues with an end cap or a label only (N-terminal biotin on a linker: ado-ado)
row,pKd,Binder
1,below the threshold,"SKQFDKNAYV [CLDN10, P78369]"

# Biological target: T3, MPDZ_5, O75970
# Assay: holdup assay
# Parameters: key: below the threshold = too weak to quantify, mostly under pKd 3.1 to 4
# Details: plain residues with an end cap or a label only (N-terminal biotin on a linker: ado-ado)
row,pKd,Binder
1,below the threshold,"SKQFDKNAYV [CLDN10, P78369]"

# Biological target: DLG1_1, Q12959
# Assay: holdup assay
# Parameters: key: below the threshold = too weak to quantify, mostly under pKd 3.1 to 4
# Details: plain residues with an end cap or a label only (N-terminal biotin on a linker: ado-ado)
row,pKd,Binder
1,below the threshold,"SKQFDKNAYV [CLDN10, P78369]"

# Biological target: T4, MPDZ_12, O75970
# Assay: holdup assay
# Parameters: key: below the threshold = too weak to quantify, mostly under pKd 3.1 to 4
# Details: plain residues with an end cap or a label only (N-terminal biotin on a linker: ado-ado)
row,pKd,Binder
1,below the threshold,"SKQFDKNAYV [CLDN10, P78369]"

# Biological target: DLG4_1, P78352
# Sequence (P78352 62-152): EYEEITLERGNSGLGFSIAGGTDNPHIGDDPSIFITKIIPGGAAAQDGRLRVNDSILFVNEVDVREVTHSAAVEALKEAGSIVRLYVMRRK
# Assay: holdup assay
# Parameters: key: below the threshold = too weak to quantify, mostly under pKd 3.1 to 4
# Details: plain residues with an end cap or a label only (N-terminal biotin on a linker: ado-ado)
row,pKd,Binder
1,below the threshold,"SKQFDKNAYV [CLDN10, P78369]"

# Biological target: NOS1, P29475
# Sequence (P29475 9-101): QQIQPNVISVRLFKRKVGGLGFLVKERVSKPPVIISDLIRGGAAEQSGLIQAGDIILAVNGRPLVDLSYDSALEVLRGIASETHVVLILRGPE
# Assay: holdup assay
# Parameters: key: below the threshold = too weak to quantify, mostly under pKd 3.1 to 4
# Details: plain residues with an end cap or a label only (N-terminal biotin on a linker: ado-ado)
row,pKd,Binder
1,3.61,"SKQFDKNAYV [CLDN10, P78369]"

# Biological target: LAP2, Q96RT1
# Sequence (Q96RT1 other isoform, or with tags, fused parts or gaps): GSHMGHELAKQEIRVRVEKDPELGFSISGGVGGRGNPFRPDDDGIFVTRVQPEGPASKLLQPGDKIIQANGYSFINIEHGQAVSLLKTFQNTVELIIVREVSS
# Assay: holdup assay
# Parameters: key: below the threshold = too weak to quantify, mostly under pKd 3.1 to 4
# Details: plain residues with an end cap or a label only (N-terminal biotin on a linker: ado-ado)
row,pKd,Binder
1,below the threshold,"SKQFDKNAYV [CLDN10, P78369]"

# Biological target: T5, PTPN13_1, Q12923
# Assay: holdup assay
# Parameters: key: below the threshold = too weak to quantify, mostly under pKd 3.1 to 4
# Details: plain residues with an end cap or a label only (N-terminal biotin on a linker: ado-ado)
row,pKd,Binder
1,below the threshold,"SKQFDKNAYV [CLDN10, P78369]"

# Biological target: DLG4_3, P78352
# Sequence (P78352 306-403): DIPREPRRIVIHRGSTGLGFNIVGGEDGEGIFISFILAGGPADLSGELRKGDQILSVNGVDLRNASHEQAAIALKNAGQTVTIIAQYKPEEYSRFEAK
# Assay: holdup assay
# Parameters: key: below the threshold = too weak to quantify, mostly under pKd 3.1 to 4
# Details: plain residues with an end cap or a label only (N-terminal biotin on a linker: ado-ado)
row,pKd,Binder
1,below the threshold,"SKQFDKNAYV [CLDN10, P78369]"

# Biological target: T6, TIAM2, Q8IVF5
# Assay: holdup assay
# Parameters: key: below the threshold = too weak to quantify, mostly under pKd 3.1 to 4
# Details: plain residues with an end cap or a label only (N-terminal biotin on a linker: ado-ado)
row,pKd,Binder
1,below the threshold,"SKQFDKNAYV [CLDN10, P78369]"

# Biological target: T7, RHPN1, Q8TCX5
# Assay: holdup assay
# Parameters: key: below the threshold = too weak to quantify, mostly under pKd 3.1 to 4
# Details: plain residues with an end cap or a label only (N-terminal biotin on a linker: ado-ado)
row,pKd,Binder
1,3.57,"SKQFDKNAYV [CLDN10, P78369]"

# Biological target: FRMPD2_1, Q68DX3
# Sequence (Q68DX3 770-861): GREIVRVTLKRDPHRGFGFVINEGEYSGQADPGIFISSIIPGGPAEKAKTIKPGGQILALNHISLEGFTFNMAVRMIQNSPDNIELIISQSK
# Assay: holdup assay
# Parameters: key: below the threshold = too weak to quantify, mostly under pKd 3.1 to 4
# Details: plain residues with an end cap or a label only (N-terminal biotin on a linker: ado-ado)
row,pKd,Binder
1,below the threshold,"SKQFDKNAYV [CLDN10, P78369]"

# Biological target: T8, APBA1_1, Q02410
# Assay: holdup assay
# Parameters: key: below the threshold = too weak to quantify, mostly under pKd 3.1 to 4
# Details: plain residues with an end cap or a label only (N-terminal biotin on a linker: ado-ado)
row,pKd,Binder
1,below the threshold,"SKQFDKNAYV [CLDN10, P78369]"

# Biological target: NHERF4_1, Q86UT5-2
# Sequence (Q86UT5 other isoform, or with tags, fused parts or gaps): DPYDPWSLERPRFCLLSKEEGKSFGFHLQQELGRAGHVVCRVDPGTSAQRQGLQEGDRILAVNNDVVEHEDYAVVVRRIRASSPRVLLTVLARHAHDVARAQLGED
# Assay: holdup assay
# Parameters: key: below the threshold = too weak to quantify, mostly under pKd 3.1 to 4
# Details: plain residues with an end cap or a label only (N-terminal biotin on a linker: ado-ado)
row,pKd,Binder
1,below the threshold,"SKQFDKNAYV [CLDN10, P78369]"

# Biological target: FRMPD3, Q5JV73
# Sequence (Q5JV73 12-100): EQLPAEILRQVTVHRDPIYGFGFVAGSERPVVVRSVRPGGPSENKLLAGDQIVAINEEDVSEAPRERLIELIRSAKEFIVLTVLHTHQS
# Assay: holdup assay
# Parameters: key: below the threshold = too weak to quantify, mostly under pKd 3.1 to 4
# Details: plain residues with an end cap or a label only (N-terminal biotin on a linker: ado-ado)
row,pKd,Binder
1,below the threshold,"SKQFDKNAYV [CLDN10, P78369]"

# Biological target: MAST2, Q6P0Q8
# Sequence (Q6P0Q8 1099-1202): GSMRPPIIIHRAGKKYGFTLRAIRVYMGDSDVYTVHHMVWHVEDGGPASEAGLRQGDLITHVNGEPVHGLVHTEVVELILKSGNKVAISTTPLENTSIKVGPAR
# Assay: holdup assay
# Parameters: key: below the threshold = too weak to quantify, mostly under pKd 3.1 to 4
# Details: plain residues with an end cap or a label only (N-terminal biotin on a linker: ado-ado)
row,pKd,Binder
1,4.02,"SKQFDKNAYV [CLDN10, P78369]"

# Biological target: SNX27, Q96L92
# Assay: holdup assay
# Parameters: key: below the threshold = too weak to quantify, mostly under pKd 3.1 to 4
# Details: plain residues with an end cap or a label only (N-terminal biotin on a linker: ado-ado)
row,pKd,Binder
1,3.78,"SKQFDKNAYV [CLDN10, P78369]"

# Biological target: T9, PDZD2_2, O15018
# Assay: holdup assay
# Parameters: key: below the threshold = too weak to quantify, mostly under pKd 3.1 to 4
# Details: plain residues with an end cap or a label only (N-terminal biotin on a linker: ado-ado)
row,pKd,Binder
1,5.11,"SKQFDKNAYV [CLDN10, P78369]"

# Biological target: DLG2_3, Q15700
# Assay: holdup assay
# Parameters: key: below the threshold = too weak to quantify, mostly under pKd 3.1 to 4
# Details: plain residues with an end cap or a label only (N-terminal biotin on a linker: ado-ado)
row,pKd,Binder
1,below the threshold,"SKQFDKNAYV [CLDN10, P78369]"

# Biological target: T10, LNX2_3, Q8N448
# Assay: holdup assay
# Parameters: key: below the threshold = too weak to quantify, mostly under pKd 3.1 to 4
# Details: plain residues with an end cap or a label only (N-terminal biotin on a linker: ado-ado)
row,pKd,Binder
1,below the threshold,"SKQFDKNAYV [CLDN10, P78369]"

# Biological target: GRIP2_3, Q9C0E4
# Sequence (Q9C0E4 238-339): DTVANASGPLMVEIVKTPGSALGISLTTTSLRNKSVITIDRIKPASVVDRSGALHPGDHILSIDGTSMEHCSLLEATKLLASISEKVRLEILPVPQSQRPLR
# Assay: holdup assay
# Parameters: key: below the threshold = too weak to quantify, mostly under pKd 3.1 to 4
# Details: plain residues with an end cap or a label only (N-terminal biotin on a linker: ado-ado)
row,pKd,Binder
1,below the threshold,"SKQFDKNAYV [CLDN10, P78369]"

# Biological target: HTRA2, O43464
# Sequence (O43464 355-458): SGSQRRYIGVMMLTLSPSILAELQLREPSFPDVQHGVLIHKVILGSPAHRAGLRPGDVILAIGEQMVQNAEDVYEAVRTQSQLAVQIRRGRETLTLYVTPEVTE
# Assay: holdup assay
# Parameters: key: below the threshold = too weak to quantify, mostly under pKd 3.1 to 4
# Details: plain residues with an end cap or a label only (N-terminal biotin on a linker: ado-ado)
row,pKd,Binder
1,below the threshold,"SKQFDKNAYV [CLDN10, P78369]"

# Biological target: LNX1_2, Q8TBB1
# Sequence (Q8TBB1 371-470): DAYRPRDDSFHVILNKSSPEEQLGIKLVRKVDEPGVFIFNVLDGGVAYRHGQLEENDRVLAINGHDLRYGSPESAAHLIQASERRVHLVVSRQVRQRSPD
# Assay: holdup assay
# Parameters: key: below the threshold = too weak to quantify, mostly under pKd 3.1 to 4
# Details: plain residues with an end cap or a label only (N-terminal biotin on a linker: ado-ado)
row,pKd,Binder
1,below the threshold,"SKQFDKNAYV [CLDN10, P78369]"

# Biological target: PARD3_3, Q8TEW0
# Sequence (Q8TEW0 582-685): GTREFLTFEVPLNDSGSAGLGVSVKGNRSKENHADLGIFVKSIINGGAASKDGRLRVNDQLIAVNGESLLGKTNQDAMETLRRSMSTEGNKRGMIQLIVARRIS
# Assay: holdup assay
# Parameters: key: below the threshold = too weak to quantify, mostly under pKd 3.1 to 4
# Details: plain residues with an end cap or a label only (N-terminal biotin on a linker: ado-ado)
row,pKd,Binder
1,below the threshold,"SKQFDKNAYV [CLDN10, P78369]"

# Reference: PMC9482650, “Quantitative fragmentomics allow affinity mapping of interactomes” (Nature Communications, 2022)
